From PMC12482432

What was measured:
[1] = tested on: T1, EefR (Escherichia coli ATCC 35218 (35218m, acrB-deficient)), ORF:f1625a7f; assay: competition; conditions: EMSA in binding buffer (Beyotime kit, composition not given), 25 °C, 20 min; 6% native PAGE at 4 °C; salt and pH not stated
T1 sequence: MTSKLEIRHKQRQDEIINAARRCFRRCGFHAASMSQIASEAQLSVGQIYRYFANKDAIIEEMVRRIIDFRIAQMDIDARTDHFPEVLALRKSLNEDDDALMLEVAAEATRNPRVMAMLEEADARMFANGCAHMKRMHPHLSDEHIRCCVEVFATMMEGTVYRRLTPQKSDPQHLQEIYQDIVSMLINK

[2] = tested on: T1, EefR (Escherichia coli ATCC 35218 (35218m, acrB-deficient)), ORF:f1625a7f; assay: EMSA; conditions: EMSA in binding buffer (Beyotime kit, composition not given), 25 °C, 20 min; 6% native PAGE at 4 °C; salt and pH not stated

Row | Sequence | binding [1] | binding [2]
1 | ACAGAATTAACCAATAGCGGGGGATATTAATCCCCCTTATTTCATTGCGAAATTCATTTCGCGATGCGGGTTCGTTATAACTGAATATCCCTGACATATCCTCATTAATTTTAATGAGGAGGGTATTTCTCACCCTGGAGAAAATA (double strand) [nonspecific probe (148 bp)] | no binding | 
2 | CACAATCTCTTCATTATCAGAATATGCACCATGAATAAGATAAAAATACTTTCCATTACTTTGGAGAAACGTATAATCAGCAAAAATGAGAACGATCATCCTCACCAAGTGATAGGCCAGGAGACAGAA (double strand) [M1 (one base mutated, MT-1)] |  | no binding
3 | CACAATCTCTTCATTATCAGAATATGCACCATGAATAAGATAAAAATACTTTCCATTACTTTGGAGAAACGTATAATCAGCAAAAATGAGAACGATCATTCTCACCAAGTGATAGGCCAGGAGACAGAA (double strand) [P1 (129 bp eefR upstream probe)] |  | binds
4 | CACAATCTCTTCATTATCAGAATATGCACCATGAATAAGATAAAAATACTTTCCATTACTTTGGAGAAACGTATAATCAGCAAAAATGAGAACGATCATTCTCACCAAGTGATAGGCCAGGAGACAGAA (double strand) [P1 cold probe] | binds | 
